Source: FireProtDB (doi:10.1021/bi0027783)
“And” between values parts separate entries of the source, which are not always exact repeats. Equal entries are not always repeated.

Details: Allium sativum, reversible: yes, whole UniProt chain shown; for denaturant m value / denaturant midpoint (higher = more stable) / unfolding free energy: GdnHCl
[1] = pH 5, Thermal, DSC, citrate phosphate 20 mM
[2] = pH 5.5, Thermal, DSC, citrate phosphate 20 mM
[3] = pH 5.8, Thermal, DSC, citrate phosphate 20 mM
[4] = pH 6, Thermal, DSC, citrate phosphate 20 mM
[5] = pH 7.5, 50.7 °C, Thermal, CD, PBS 20 mM
[6] = pH 7.5, 53.3 °C, Thermal, CD, PBS 20 mM
[7] = pH 7.5, 55.7 °C, Thermal, CD, PBS 20 mM
[8] = pH 7.5, 56.3 °C, Thermal, CD, PBS 20 mM
[9] = pH 7.5, 60.8 °C, Thermal, CD, PBS 20 mM
[10] = pH 7.5, 64.2 °C, Thermal, CD, PBS 20 mM
[11] = pH 7.5, 66.4 °C, Thermal, CD, PBS 20 mM

## RNILMNGEGLYAGQSLDVEPYHFIMQEDCN [wild type]
[1]
  Tm: 75.5 °C
  unfolding enthalpy (van 't Hoff): 132 kcal/mol
[2]
  Tm: 74.6 °C
  unfolding enthalpy (van 't Hoff): 130 kcal/mol
[3]
  Tm: 73.9 °C
  unfolding enthalpy (van 't Hoff): 128 kcal/mol
[4]
  Tm: 73.1 °C
  unfolding enthalpy (van 't Hoff): 125 kcal/mol
pH 7, Thermal, DSC, PBS 20 mM
  Tm: 70.9 °C
  unfolding enthalpy (van 't Hoff): 118 kcal/mol
pH 7.5, 10 °C, CD, PBS 20 mM
  denaturant m value: 2.61 kcal/mol/M
  denaturant midpoint (higher = more stable): 4.9 M
  unfolding free energy: 12.8 kcal/mol
pH 7.5, 15 °C, CD, PBS 20 mM
  denaturant m value: 2.23 kcal/mol/M
  denaturant midpoint (higher = more stable): 5.84 M
  unfolding free energy: 13 kcal/mol
pH 7.5, 20 °C, CD, PBS 20 mM
  denaturant m value: 2.25 kcal/mol/M
  denaturant midpoint (higher = more stable): 5.84 M
  unfolding free energy: 13.1 kcal/mol
pH 7.5, 25 °C, CD, PBS 20 mM
  denaturant m value: 2.3 kcal/mol/M
  denaturant midpoint (higher = more stable): 5.6 M
  unfolding free energy: 12.9 kcal/mol
pH 7.5, 30 °C, CD, PBS 20 mM
  denaturant m value: 2.64 kcal/mol/M
  denaturant midpoint (higher = more stable): 4.62 M
  unfolding free energy: 12.2 kcal/mol
pH 7.5, 35 °C, CD, PBS 20 mM
  denaturant m value: 3.21 kcal/mol/M
  denaturant midpoint (higher = more stable): 3.4 M
  unfolding free energy: 10.9 kcal/mol
pH 7.5, 40 °C, CD, PBS 20 mM
  denaturant m value: 4 kcal/mol/M
  denaturant midpoint (higher = more stable): 2.41 M
  unfolding free energy: 9.65 kcal/mol
pH 7.5, 45 °C, CD, PBS 20 mM
  denaturant m value: 3.89 kcal/mol/M
  denaturant midpoint (higher = more stable): 1.99 M
  unfolding free energy: 7.74 kcal/mol
pH 7.5, 50 °C, CD, PBS 20 mM
  denaturant m value: 3.83 kcal/mol/M
  denaturant midpoint (higher = more stable): 1.5 M
  unfolding free energy: 5.75 kcal/mol
[5]
  heat capacity change of unfolding: 3.64 kcal/mol/K
  unfolding enthalpy (van 't Hoff): 115 kcal/mol
[6]
  heat capacity change of unfolding: 3.59 kcal/mol/K
  unfolding enthalpy (van 't Hoff): 118 kcal/mol
[7]
  heat capacity change of unfolding: 3.5 kcal/mol/K
  unfolding enthalpy (van 't Hoff): 124 kcal/mol
[8]
  heat capacity change of unfolding: 3.4 kcal/mol/K
  unfolding enthalpy (van 't Hoff): 136 kcal/mol
[9]
  heat capacity change of unfolding: 3.32 kcal/mol/K
  unfolding enthalpy (van 't Hoff): 142 kcal/mol
[10]
  heat capacity change of unfolding: 3.25 kcal/mol/K
  unfolding enthalpy (van 't Hoff): 153 kcal/mol
[11]
  heat capacity change of unfolding: 3.2 kcal/mol/K
  unfolding enthalpy (van 't Hoff): 173 kcal/mol
pH 7.5, Thermal, DSC, PBS 20 mM
  unfolding enthalpy (calorimetric): 96.4 kcal/mol and 116 kcal/mol and 118 kcal/mol
pH 8, Thermal, DSC, PBS 20 mM
  Tm: 69.2 °C
  unfolding enthalpy (van 't Hoff): 113 kcal/mol
